The supplement of paper PMC9112550, “Optimization of the antimicrobial peptide Bac7 by deep mutational scanning” (BMC Biology, 2022)

What follows are sequences tested on Escherichia coli TOP10 (assay: shrunken log2 fold change of peptide-encoding DNA abundance (4.5 h post-induction vs induction); higher = less antimicrobial activity (less host growth inhibition)). Conditions: time post-induction: 4.5 h; library: site-saturation at positions 5, 18, 19, 20.
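Also: peptides expressed intracellularly from a pBAD plasmid library in pooled LB shake-flask culture, induced with 0.3% L-arabinose, DNA abundance read by NGS, three biological replicates, DESeq2 with apeglm shrinkage.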

Sequence	shrunken log2 fold change
RRIRHRPPRLPRPRPRPPEKPRP	-0.00804
RRIRHRPPRLPRPRPRPPETPRP	0.0733
RRIRHRPPRLPRPRPRPPGCPRP	0.184
RRIRHRPPRLPRPRPRPPHTPRP	0.249
RRIRHRPPRLPRPRPRPPNAPRP	0.257
RRIRHRPPRLPRPRPRPPNLPRP	0.189
RRIRHRPPRLPRPRPRPPNVPRP	-0.0106
RRIRHRPPRLPRPRPRPPPTPRP	0.766
RRIRHRPPRLPRPRPRPPPWPRP	0.446
RRIRHRPPRLPRPRPRPPQPPRP	0.216
RRIRHRPPRLPRPRPRPPQWPRP	0.0657
RRIRHRPPRLPRPRPRPPRAPRP	0.667
RRIRHRPPRLPRPRPRPPRRPRP	0.452
RRIRHRPPRLPRPRPRPPTKPRP	0.161
RRIRHRPPRLPRPRPRPPTLPRP	0.246
RRIRHRPPRLPRPRPRPPTPPRP	0.518
RRIRHRPPRLPRPRPRPPTWPRP	0.0706
RRIRHRPPRLPRPRPRPPVEPRP	0.126
RRIRHRPPRLPRPRPRPPVHPRP	0.00286
RRIRHRPPRLPRPRPRPPWKPRP	0.174
RRIRHRPPRLPRPRPRPPYPPRP	-0.0246
RRIRHRPPRLPRPRPRPQDAPRP	-0.00992

Sequence	shrunken log2 fold change
RRIRHRPPRLPRPRPRPQDVPRP	0.0527
RRIRHRPPRLPRPRPRPQELPRP	-0.122
RRIRHRPPRLPRPRPRPQERPRP	-0.0325
RRIRHRPPRLPRPRPRPQEVPRP	-0.0461
RRIRHRPPRLPRPRPRPQFTPRP	-0.182
RRIRHRPPRLPRPRPRPQIEPRP	-0.24
RRIRHRPPRLPRPRPRPQIMPRP	-0.682
RRIRHRPPRLPRPRPRPQKDPRP	0.0122
RRIRHRPPRLPRPRPRPQNAPRP	-0.135
RRIRHRPPRLPRPRPRPQPDPRP	-0.0791
RRIRHRPPRLPRPRPRPQPLPRP	-0.0863
RRIRHRPPRLPRPRPRPQRNPRP	-0.223
RRIRHRPPRLPRPRPRPQSVPRP	-0.267
RRIRHRPPRLPRPRPRPQTCPRP	-0.653
RRIRHRPPRLPRPRPRPQTKPRP	-0.0667
RRIRHRPPRLPRPRPRPQTRPRP	-0.148
RRIRHRPPRLPRPRPRPQTYPRP	-0.193
RRIRHRPPRLPRPRPRPQVKPRP	-1.6
RRIRHRPPRLPRPRPRPQYKPRP	-0.252
RRIRHRPPRLPRPRPRPQYTPRP	-1.27
RRIRHRPPRLPRPRPRPQYVPRP	-0.213
RRIRHRPPRLPRPRPRPRCCPRP	-0.079

Sequence	shrunken log2 fold change
RRIRHRPPRLPRPRPRPREVPRP	0.151
RRIRHRPPRLPRPRPRPRFWPRP	0.112
RRIRHRPPRLPRPRPRPRHFPRP	-0.0239
RRIRHRPPRLPRPRPRPRHYPRP	-0.285
RRIRHRPPRLPRPRPRPRIFPRP	-0.121
RRIRHRPPRLPRPRPRPRIWPRP	0.242
RRIRHRPPRLPRPRPRPRKLPRP	-0.141
RRIRHRPPRLPRPRPRPRKMPRP	-0.246
RRIRHRPPRLPRPRPRPRKNPRP	0.00268
RRIRHRPPRLPRPRPRPRLDPRP	-0.0149
RRIRHRPPRLPRPRPRPRLYPRP	0.114
RRIRHRPPRLPRPRPRPRMEPRP	-0.0339
RRIRHRPPRLPRPRPRPRMHPRP	-0.0289
RRIRHRPPRLPRPRPRPRMLPRP	-0.192
RRIRHRPPRLPRPRPRPRQDPRP	-0.189
RRIRHRPPRLPRPRPRPRRPPRP	0.385
RRIRHRPPRLPRPRPRPRSCPRP	-0.0982
RRIRHRPPRLPRPRPRPRSLPRP	0.295
RRIRHRPPRLPRPRPRPRSQPRP	0.136
RRIRHRPPRLPRPRPRPRSYPRP	-0.12
RRIRHRPPRLPRPRPRPRTWPRP	0.207
RRIRHRPPRLPRPRPRPRVIPRP	-0.12

Sequence	shrunken log2 fold change
RRIRHRPPRLPRPRPRPRVTPRP	0.0786
RRIRHRPPRLPRPRPRPRWCPRP	0.0475
RRIRHRPPRLPRPRPRPRWQPRP	0.176
RRIRHRPPRLPRPRPRPRWRPRP	0.355
RRIRHRPPRLPRPRPRPRYDPRP	-0.0205
RRIRHRPPRLPRPRPRPSANPRP	-0.228
RRIRHRPPRLPRPRPRPSCDPRP	-0.336
RRIRHRPPRLPRPRPRPSCHPRP	-0.509
RRIRHRPPRLPRPRPRPSCNPRP	-0.599
RRIRHRPPRLPRPRPRPSCSPRP	-0.876
RRIRHRPPRLPRPRPRPSDEPRP	-0.000726
RRIRHRPPRLPRPRPRPSDKPRP	-0.355
RRIRHRPPRLPRPRPRPSEAPRP	-0.344
RRIRHRPPRLPRPRPRPSGKPRP	-0.0266
RRIRHRPPRLPRPRPRPSGTPRP	-0.0258
RRIRHRPPRLPRPRPRPSHHPRP	-0.267
RRIRHRPPRLPRPRPRPSHPPRP	0.0558
RRIRHRPPRLPRPRPRPSKAPRP	-0.463
RRIRHRPPRLPRPRPRPSKDPRP	-0.293
RRIRHRPPRLPRPRPRPSKWPRP	-0.452
RRIRHRPPRLPRPRPRPSLKPRP	-0.488
RRIRHRPPRLPRPRPRPSLRPRP	-0.244

Sequence	shrunken log2 fold change
RRIRHRPPRLPRPRPRPSNRPRP	-0.771
RRIRHRPPRLPRPRPRPSNYPRP	-0.28
RRIRHRPPRLPRPRPRPSQMPRP	0.0205
RRIRHRPPRLPRPRPRPSRGPRP	-0.0716
RRIRHRPPRLPRPRPRPSSAPRP	-0.0336
RRIRHRPPRLPRPRPRPSSEPRP	-0.102
RRIRHRPPRLPRPRPRPSTIPRP	-0.0522
RRIRHRPPRLPRPRPRPSTRPRP	0.0896
RRIRHRPPRLPRPRPRPSVFPRP	-0.424
RRIRHRPPRLPRPRPRPSWDPRP	-0.205
RRIRHRPPRLPRPRPRPSWHPRP	-0.759
RRIRHRPPRLPRPRPRPSWMPRP	-0.419
RRIRHRPPRLPRPRPRPSWQPRP	0.0601
RRIRHRPPRLPRPRPRPTAVPRP	-0.295
RRIRHRPPRLPRPRPRPTCWPRP	-0.0322
RRIRHRPPRLPRPRPRPTESPRP	0.0139
RRIRHRPPRLPRPRPRPTHKPRP	0.0457
RRIRHRPPRLPRPRPRPTHWPRP	0.706
RRIRHRPPRLPRPRPRPTLKPRP	1.82
RRIRHRPPRLPRPRPRPTLWPRP	0.246
RRIRHRPPRLPRPRPRPTMEPRP	-0.0987
